Drawing on article PMC10397247, this text covers interaction score for two molecules.

Holding throughout (assay): two-hybrid library CCNG1;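 also: natural log of median RNA to DNA barcode read ratio; higher means stronger binding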
The target in one test is T1, 4H683-bN.
T1 chain: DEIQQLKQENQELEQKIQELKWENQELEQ

The target in the next test is T2, 4H1158-bN.
T2 chain: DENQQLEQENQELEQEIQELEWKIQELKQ

Another test concerns the target T3, 4H1831-bN.
T3 chain: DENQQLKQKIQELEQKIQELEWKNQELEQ

For another test, the target named is T4, 4H575-bN.
T4 chain: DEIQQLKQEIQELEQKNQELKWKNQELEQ

The target in a further test is T5, 4H2702-bN.
T5 chain: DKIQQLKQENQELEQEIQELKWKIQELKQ

Another test has as its target T6, 4H918-bN.
T6 chain: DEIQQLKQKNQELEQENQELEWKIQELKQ

In another test the target is T7, 4H2586-bN.
T7 chain: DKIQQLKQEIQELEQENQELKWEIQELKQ

Another test has as its target T8, 4H4073-bN.
T8 chain: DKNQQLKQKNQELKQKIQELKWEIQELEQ

The target in another test is T9, 4H457-bN.
T9 chain: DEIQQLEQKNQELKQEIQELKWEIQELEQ

The next test addresses T10, 4H3926-bN.
T10 chain: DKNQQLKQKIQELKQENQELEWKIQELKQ

Another test concerns the target T11, 4H170-bN.
T11 chain: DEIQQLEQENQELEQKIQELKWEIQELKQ

In a further test the target is T12, 4H3010-bN.
T12 chain: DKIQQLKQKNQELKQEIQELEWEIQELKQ

For another test, the target named is T13, 4H2673-bN.
T13 chain: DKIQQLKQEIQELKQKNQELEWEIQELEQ

The next test addresses T14, 4H953-bN.
T14 chain: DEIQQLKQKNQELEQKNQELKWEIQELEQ

For a further test, the target named is T15, 4H118-bN.
T15 chain: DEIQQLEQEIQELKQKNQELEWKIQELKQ

A further test addresses T16, 4H797-bN.
T16 chain: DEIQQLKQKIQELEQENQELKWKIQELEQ

For the next test, the target named is T17, 4H754-bN.
T17 chain: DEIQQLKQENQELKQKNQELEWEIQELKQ

A further test has as its target T18, 4H3427-bN.
T18 chain: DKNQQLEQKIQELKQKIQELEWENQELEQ

The next test has as its target T19, 4H3112-bN.
T19 chain: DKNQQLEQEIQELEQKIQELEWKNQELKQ

The next test addresses T20, 4H780-bN.
T20 chain: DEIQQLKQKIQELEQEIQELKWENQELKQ

The target of a further test is T21, 4H2627-bN.
T21 chain: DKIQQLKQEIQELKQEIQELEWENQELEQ

The next test deals with T22, 4H855-bN.
T22 chain: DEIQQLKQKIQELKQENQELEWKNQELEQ

In a further test the target is T23, 4H346-bN.
T23 chain: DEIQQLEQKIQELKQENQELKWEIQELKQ

For the next test, the target named is T24, 4H968-bN.
T24 chain: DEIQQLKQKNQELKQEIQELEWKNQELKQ

The target in a further test is T25, 4H3601-bH.
T25 chain: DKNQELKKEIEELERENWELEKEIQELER

The next test addresses T26, 4H3907-bH.
T26 chain: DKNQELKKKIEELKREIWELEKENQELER

In the next test the target is T27, 4H1387-bH.
T27 chain: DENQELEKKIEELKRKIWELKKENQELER

The target in a further test is T28, 4H1406-bH.
T28 chain: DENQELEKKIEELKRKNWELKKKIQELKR

A further test has as its target T29, 4H4001-bH.
T29 chain: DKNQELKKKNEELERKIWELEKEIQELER

The target of a further test is T30, 4H850-bN.
T30 chain: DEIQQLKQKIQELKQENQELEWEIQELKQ

The next test has as its target T31, 4H3592-bH.
T31 chain: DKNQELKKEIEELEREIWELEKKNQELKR

The next test deals with T32, 4H4038-bH.
T32 chain: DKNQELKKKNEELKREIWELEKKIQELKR

With DENQQLEQENQELEQEIQELEWKIQELKQ [4H1158-bN], the interaction score with 4H683-bN is 0.827; with 4H1158-bN, 0.0264; with 4H1831-bN, -0.553; with 4H575-bN it was -0.306; with 4H2702-bN it was -0.191; with 4H918-bN it was -1.72. Moreover, the interaction score is 0.693 in the test with 4H2586-bN; 2.1 with 4H4073-bN; 0.107 with 4H457-bN; -1.19 in the test with 4H3926-bN; -0.262 with 4H170-bN; 1.32 in the test with 4H3010-bN. The interaction score in the test with 4H2673-bN is -1.07; in the test with 4H953-bN, 0.0849; with 4H118-bN, 0.579; with 4H797-bN, -0.804; with 4H754-bN, 0.195; with 4H3427-bN, -0.273. Further, the interaction score with 4H3112-bN is 0.501; with 4H780-bN, -0.000435; with 4H2627-bN it was -1.89; with 4H855-bN it was 0.326; in the test with 4H346-bN, -0.45; in the test with 4H968-bN it was -1.23.

DENQELEKKIEELKRKIWELKKENQELER [4H1387-bH]: the interaction score was -0.847 in the test with 4H3601-bH; 1.59 in the test with 4H3907-bH; 0.423 in the test with 4H1387-bH; -0.693 in the test with 4H1406-bH; 0.333 with 4H4001-bH; 0.44 with 4H850-bN. Moreover, the interaction score with 4H3592-bH worked out at 1.37; in the test with 4H4038-bH, 1.09.
